According to patent US20080124780A1, “Hybrid immobilized catalytic system with controlled permeability” (NORTHEASTERN UNIVERSITY, priority 2002, published 2008):

Details: not told; for Permeability Coefficient: pH 7.4
Source text: In order to estimate the molecular weight cut-off point of the cross-linked chitosan, a model representing the chitosan layer was developed in which a thin membrane acts as a layer surrounding the alginate core. The permeability coefficients for vitamin B2 (molecular weight 376 daltons) and vitamin B12 (molecular weight 1355 daltons) representing low-molecular weight substrates, and myoglobin (molecular weight 14,000 daltons) representing a high molecular weight substrate, were studied.
Chitosan solution was prepared by dissolving the polymer (750 kDa, 87.6% deacetylation) obtained from Pronova Biopolymers (Raymond, Wash.) in 0.1-M acetic acid to make a 0.75% (w/v) solution. Films were made by pouring 10 ml of the solution into a Petri dish (100×15 mm) and air-drying for up to 48 hours. The resulting films were dipped into a 3.0% (w/v) aqueous sodium tri-polyphosphate (Na-TPP, Sigma Chemical Company, St. Louis, Mo.) solution and kept for 1.5 hours. The cross-linked membranes were washed with distilled water once and stored in PBS at 4° C.
Using a side-by-side diffusion apparatus, the permeability coefficients of vitamin B2, vitamin B12, and myoglobin were determined. Briefly, each apparatus was composed of a donor compartment and a receptor compartment, with a 15-ml capacity. The donor and receptor compartments were separated by the membrane.
The donor compartment was filled with 15 ml of vitamin B2, vitamin B12, or myoglobin solution, and the receptor compartment was filled with 15 ml of phosphate buffered-saline (PBS) pH 7.4. The concentrations of vitamin B2, vitamin B12 and myoglobin were 0.1, 1.0, and 0.1 mg/ml respectively. The receptor compartment was stirred and temperature was controlled in both compartments at 37° C. by a circulating water bath. […] The absorbance values of vitamin B2 at 440 nm, vitamin B12 at 361 nm, and myoglobin at 410 nm were measured using a Shimadzu 160U UV/IV spectrophotometer (Columbia, Md.). The concentration of the diffused compound into the receptor compartment was calculated from calibration curves constructed earlier. […]

Substance	Permeability Coefficient	permeation through the membrane
vitamin B12	7.46 ± 1.47 cm^2/min × 10^6	
myoglobin	0.34 ± 0.89 cm^2/min × 10^6	permeated at only a low level
